From patent US20260152565A1 (Dana-Farber, published 2026)
Substitutions are numbered along the chain they refer to. Where two headings read alike, the source gives them in different places.

T1: BCMA on cells, species not stated (Homo sapiens (Human), UniProt Q02223 1-184)
T1 construct: also called BCMA cells; 3T3 BCMA cells
T1 sequence: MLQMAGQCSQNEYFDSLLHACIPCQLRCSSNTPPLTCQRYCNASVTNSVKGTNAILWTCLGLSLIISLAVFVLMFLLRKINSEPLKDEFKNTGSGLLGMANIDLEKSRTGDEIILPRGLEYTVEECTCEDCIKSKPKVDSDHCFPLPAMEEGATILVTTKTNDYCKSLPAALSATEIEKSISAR

T2: human BCMA (TNFRSF17) expressed on cells (human, UniProt Q02223 1-184)
T2 construct: whole, on cells; also called HEK 293T-hu BCMA cells; human BCMA cell lines
T2 sequence (looked up): T1 sequence

T3: hBCMA-his-biotin (Acro, BCA-H82E4) (human, UniProt Q02223 1-54, biotin (as printed: hBCMA-his-biotin; site not stated))
T3 construct: Bought reagent; not shown: His tag
T3 sequence (looked up): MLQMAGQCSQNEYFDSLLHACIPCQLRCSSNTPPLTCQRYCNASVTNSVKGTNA

B1: PR000940 (antibody, V domains shown)
VH: EVQLLESGGGLVQPGGSLRLSCAASGFTFSSYAMIWVRQAPGKGLEWVSGISESGGSTYYADSVKGRFTISRDNSKNTLYLQMNSLRAEDTAVYFCVKDLDDILTGYYKDYWGQGTLVTVSS
notes: Heavy chain-only antibody from Harbour HCAb mice: dimer of two heavy chains, each with VH, CH2 and CH3; also called HCAb antibody PR000940; not shown: constant part (CH2 and CH3 regions of the Harbour HCAb format)
B2: PR000943 (antibody, V domains shown)
VH: EVQLVETGGGLIQPGGSLRLSCAASGFPVSSNYMSWVRQAPGKGLEWVSVIFSGGRTYYADSVKGRFTISRDNSKNTLYLQMNSLRAEDTAVYYCARRNWIDGRDAFDIWGQGTMVTVSS
notes: also called HCAb antibody PR000943; not shown: constant part (CH2 and CH3 regions of the Harbour HCAb format)
B3: PR001035 (antibody, V domains shown)
VH: B2 VH with P28T, S35T, R56S, N99I, W100A, I101V, D102A, R104H, A106V
notes: also called HCAb antibody PR001035; not shown: constant part (CH2 and CH3 regions of the Harbour HCAb format)
B4: PR001046 (antibody, V domains shown)
VH: EVQLVETGGGLIQPGGSLRLSCAASGFTVSDNYMTWVRQAPGKGLEWVSVIFSGGNTYYADSVKGRFTISRDNAKNTLYLQMNSLRAEDTALYYCARRNYDDTRGTDVFDIWGQGTMVTVSS
notes: also called HCAb antibody PR001046; PR001046 VH-only human IgG1 test antibody; not shown: constant part (CH2 and CH3)
B5: PR000274 (clone CA8-J6M0) (antibody, V domains shown)
VH: QVQLVQSGAEVKKPGSSVKVSCKASGGTFSNYWMHWVRQAPGQGLEWMGATYRGHSDTYYNQKFKGRVTITADKSTSTAYMELSSLRSEDTAVYYCARGAIYDGYDVLDNWGQGTLVTVSS
VL: DIQMTQSPSSLSASVGDRVTITCSASQDISNYLNWYQQKPGKAPKLLIYYTSNLHSGVPSRFSGSGSGTDFTLTISSLQPEDFATYYCQQYRKLPWTFGQGTKLEIKR

Columns and labels:
[1] = molecular target: T4, cynomolgus monkey BCMA expressed on HEK 293T cells (cynomolgus monkey, UniProt A0A2K5UD97 1-183); assay: cell binding, MFI against antibody concentration, panel title Bind to HEK293T - cyno BCMA
T4 construct: also called HEK 293T-cyno BCMA cells; cyno BCMA
T4 sequence (A0A2K5UD97 entry or part of it limits assumed): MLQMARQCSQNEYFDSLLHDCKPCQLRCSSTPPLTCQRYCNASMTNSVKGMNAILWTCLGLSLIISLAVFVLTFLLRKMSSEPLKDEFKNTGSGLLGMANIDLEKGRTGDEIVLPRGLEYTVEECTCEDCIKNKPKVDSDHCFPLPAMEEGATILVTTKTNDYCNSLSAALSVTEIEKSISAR

[2] = molecular target: T1, BCMA on cells, species not stated; assay: cell binding, MFI against antibody concentration, panel title Bind to NCI-H929 cell
[3] = molecular target: T1, BCMA on cells, species not stated; assay: blocking of BAFF binding to BCMA cells
[4] = molecular target: T2, human BCMA (TNFRSF17) expressed on cells; assay: cell binding, MFI against antibody concentration, HEK 293T-hu BCMA cells (cell line from legend paragraph 17)
EGFR = molecular target: T5, EGFR (human, UniProt P00533 25-1210); assay: cell microarray, confirmation screen, control receptor; cell left blank in Table 13
T5 construct: whole, on cells; also called control receptor
Procedure: In order to screen the on-target specificity of one of the VH-only anti-BCMA-targeted CARs, the Retrogenix Cell Microarray Technology platform was employed, which is a high-throughput platform for screening binding interactions between a test molecule and about 6100 human surfaceome proteins.
This was performed on both fixed and live cells (FIGS. 11A-11D).

[5] = molecular target: T3, hBCMA-his-biotin (Acro, BCA-H82E4); assay: biosensor kinetics, SA sensor loaded with hBCMA-his-biotin, antibody in solution
Procedure: (§1) The sensor was streptavidin (SA), loaded with hBCMA-his-biotin from Acro catalog number BCA-H82E4, and 50 nM antibody with a 1:2 dilution factor. Association times in FIG. 5A-FIG. 5C were each 600 s and dissociation times were each 900 s.

[6] = molecular target: T3, hBCMA-his-biotin (Acro, BCA-H82E4); assay: as above; remark: listed apart in the source
Procedure: as §1

Row | Binder | binding result [1] | EC50 (read off the curve) [2] | Span [3] | EC50 (read off the curve) [4] | binding result (EGFR) | Kd [5] | koff [5] | kon [5] | Kd [6] | koff [6] | kon [6]
1 | B1 | no binding | ~2 nM | – | – | – | – | – | – | – | – | –
2 | B2 | – | ~4 nM | 2.19 | ~0.01 µg/mL | – | – | – | – | – | – | –
3 | B3 | – | ~1 nM | 1.92 | ~0.02 µg/mL | – | – | – | – | – | – | –
4 | B4 | – | ~2 nM | 1.99 | ~0.02 µg/mL | no binding (tested: 2.5 µg/mL) | – | – | – | – | – | –
5 | B5 | – | ~10 nM | 1.86 | – | – | < 1 pM | < 1e-07 s⁻¹ | 195000 M⁻¹ s⁻¹ | < 1 pM | < 1e-07 s⁻¹ | 228000 M⁻¹ s⁻¹
